Data on 6 molecules can be found in patent publication US20120058118A1 (Boehringer Ingelheim, published 2012).

In test [1] the target is T1, aggregated A-beta(1-40) peptide (BAA) (human).
T1 construct: also called A-beta peptide aggregates
The test can be described thus: BAA ELISA. (In general: In an ELISA, binding on a coated surface is turned into a signal by an enzyme label.)

The target of test [2] is T2, human A-beta(1-40) peptide, monomeric (BAM) (human, biotin at the C-terminus in capture ELISA, SPR and TR-FRET; not biotinylated where coated directly (Example 7)).
T2 construct: synthetic peptide (Anaspec), TFA/HFIP treated to give monomer; also called monomeric A-beta
Put plainly: BAM ELISA.

Test [3] deals with T1, aggregated A-beta(1-40) peptide (BAA). Put plainly: BAA ELISA. The source holds these as a separate data set.
In test [4] the target is T2, human A-beta(1-40) peptide, monomeric …. The test can be described thus: BAM ELISA. The source holds these as a separate data set.
Test [5] has the same target. Put plainly: TR-FRET competition. (In general: TR-FRET usually uses a lanthanide donor and a delayed reading to cut background.)
Test [6] shares this target. Put plainly: TR-FRET competition. This is another data set of the same source.
The next test concerns the target T3, A-beta(1-16) peptide (human).
T3 construct: Bachem peptide captured on streptavidin chip; also called monomeric A-beta(1-16)
T3 peptide: DAEFRHDSGYEVHHQK-biotin
Put plainly: SPR on captured A-beta(1-16).

The target in test [7] is T2, human A-beta(1-40) peptide, monomeric …. The test can be described thus: TR-FRET competition, labelled ABII42D4.
Test [8] shares this target. The test can be described thus: TR-FRET competition, labelled ABII42D4. This is another data set of the same source.
For test [9] the target is unchanged. The test can be described thus: 42D4 TR-FRET assay (labelled ABII42D4).
For test [10] the target is unchanged. The test can be described thus: 60A10 TR-FRET assay (labelled ABII60A10).
Test [11] has the same target. Put plainly: SPR, captured C-terminally biotinylated A-beta(1-40), 1:1 model. Background: In SPR one partner is held on a chip, and binding of the other changes the refractive index at the surface.
Experimental: (§1) After capturing, surfaces are blocked by injecting an excess (200 μg/ml) of d-biotin for 180 s at 5 μl/min. A reference surface is washed and blocked with d-biotin. HBS-EP+buffer is used as the running buffer and experiments are performed at 25° C. For off-rate screening, periplasmic extracts of VHHs are injected at a 10-fold dilution for 2 min at 45 μl/min and are allowed to dissociate for 10 min. […] Between different VHH samples, the surfaces are regenerated with regeneration buffer (50 mM NaOH) for 25 s at 45 μl/min followed by 10 s 6M GuHCl at 45 μl/min if regeneration is incomplete. […] Data are double referenced by subtraction of the curves on the reference channel and of a blank running buffer injection. Sensorgrams are evaluated by fitting a 1:1 dissociation model using the Biacore T100 Evaluation software v1.1.1.
The target is the same in test [12]. Put plainly: SPR (Biacore T100), periplasmic extracts on captured biotinylated A-beta(1-40), 1:1 model.
Experimental: as §1
The target in test [13] is T4, mouse A-beta(1-40) peptide (mouse).
T4 construct: Bachem peptide coated directly; also called rodent A-beta(1-40)
T4 peptide: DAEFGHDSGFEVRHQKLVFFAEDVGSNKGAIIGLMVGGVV
Put plainly: ELISA EC50.

In test [14] the target is T2, human A-beta(1-40) peptide, monomeric …. Put plainly: TR-FRET competition and SPR.
For test [15] the target is unchanged. Put plainly: ABII002 TR-FRET competition assay.
Test [16] shares this target. Put plainly: ELISA, peptide coated at 2 µg/ml, anti-myc detection.
Test [17] concerns the target T4, mouse A-beta(1-40) peptide. The description is as above.
Test [18] concerns the target T2, human A-beta(1-40) peptide, monomeric …. Put plainly: TR-FRET competition, mean IC50; mean IC50 of Table XII.
Test [19] has the same target. The test can be described thus: ABII050 TR-FRET competition assay.
For test [20] the target is unchanged. Put plainly: TR-FRET competition, labelled ABII60A10.
For test [21], the target named is T5, pGlu-A-beta(1-28), C-terminally biotinylated (human, pyroglutamate formed from the glutamate at position 3 (N-terminus); biotin at the C-terminus).
T5 construct: printed as pGlu-A-beta(1-28), while the text says that the first two N-terminal residues are missing; range 3-28 is my reading; also called pyroglutamyl-Abeta
Put plainly: SPR on captured C-terminally biotinylated pGlu-A-beta(1-28), 1:1 model.
Text: Association and dissociation curves can be fitted using a 1:1 interaction model and an accurate KD value can be determined.

The target in test [22] is T6, His.Xa.Abeta1-28.GS.p38 fusion protein.
T6 construct: His-tag, factor Xa site, A-beta(1-28), GS linker, murine p38 alpha; the SEC experiment names it only A-beta(1-28)-p38 fusion protein; also called A-beta(1-28)-p38 fusion protein; A-beta-p38 fusion protein
T6 chain: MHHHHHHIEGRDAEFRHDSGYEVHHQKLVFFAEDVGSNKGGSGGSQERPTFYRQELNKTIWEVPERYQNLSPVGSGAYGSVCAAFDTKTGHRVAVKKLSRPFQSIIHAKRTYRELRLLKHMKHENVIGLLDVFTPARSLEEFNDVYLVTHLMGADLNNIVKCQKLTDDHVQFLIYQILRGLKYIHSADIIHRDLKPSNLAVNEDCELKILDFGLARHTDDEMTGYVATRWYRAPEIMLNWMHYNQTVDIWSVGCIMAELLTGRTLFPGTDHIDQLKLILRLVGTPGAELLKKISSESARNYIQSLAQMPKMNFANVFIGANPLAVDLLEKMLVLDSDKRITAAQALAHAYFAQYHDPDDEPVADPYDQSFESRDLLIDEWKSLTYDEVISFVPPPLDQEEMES
Put plainly: size exclusion chromatography, Experion quantification (0.87 µM and 0.86 µM).
Experimental: Determination of the binding mode using size exclusion chromatography: Size exclusion chromatography (SEC) separates molecules according to differences in size as they pass through a gel filtration medium packed in a column. The binding mode of biparatopic VHH constructs to their target can be identified by analysing the protein complex after incubating a 1:2 molar ratio of the respective VHH construct and the target protein. Therefore the mixture will be separated by SEC and the contents of the resulting peaks is analyzed by protein gel electrophoresis. […] The gel filtration produced two peaks which are further analyzed by SDS-PAGE using the automated electrophoresis station Experion (Bio-Rad, USA) and the appropriate chip (Pro260 Chip, Bio-Rad, USA).

For test [23], the target named is T2, human A-beta(1-40) peptide, monomeric …. The test can be described thus: ABII42D4 TR-FRET assay.
Test [24] has the same target. Put plainly: cell-based or functional assay.
For test [25] the target is unchanged. Put plainly: TR-FRET competition; extrapolated curve.
For test [26] the target is unchanged. Put plainly: TR-FRET competition, labelled ABII60A10; extrapolated curve.

Changes are numbered by the printed parent chain. Where two headings read alike, the source gives them in different places. Ends that are not written are not given here.

Experimental for A-beta(1-16) peptide: as §1

B1: ABII42D4 (VHH)
VHH: EVQLVESGGGLVLAGGSLRLSCVHSGPTFSTDTMGWFRQAPGKEREFVAAVTWNSGRTNYADSVKGRFTVSRDNTRNAAYLQMSGLKDEDTAVYYCTAHRLVVGGTSVGDWRYWGQGTQVTVSS
notes: also called ABIIPMP42D4
Regarding B1, the EC50 in [1] amounted to 0.9 nM; in test [2], 14.2 nM; in [3], 0.9 nM; in test [4] it was 14.2 nM. Besides, in test [5], the “fold improved IC50 against reference VHH 2G6” value was at least 21 fold. In addition, the IC50 in test [6] was 46.8 nM; in test [7], 44 nM; in test [8] it was 46.8 nM; in [9], 51 nM; in test [10], above 1000 nM. Moreover, the binding result with A-beta(1-16) peptide was “binds”. In test [11], this molecule showed a dissociation constant (Kd) of 16 nM. Further, the koff in test [12] was 0.0061 s⁻¹.

B2: ABII111B5_M107R = ABII002 (VHH)
VHH: B1 VHH with S30R, T58I, L101F, T106N, S107R, G109E
notes: myc-tagged in ELISA
For B2, the “fold difference mouse against human A-beta” value in test [13] came out at 1.8 fold. In addition, the “fold improvement of IC50 and KD over original ABII42D4” value in test [14] was above 10 fold. Besides, the figures for the concentration for half-maximal inhibition (IC50) in test [15], in test [7] and in test [18] were 2.9 nM, 2.9 nM and 2 nM, respectively. The EC50 in test [16] is 1.8 nM; in test [17], 3.3 nM.

B3: monoclonal antibody m266 (IgG) (antibody, V domains shown)
VH: EVKLVESGGGLVQPGGSLKLSCAVSGFTFSRYSMSWVRQTPEKRLELVAQINSVGNSTYYPDTVKGRFTISRDNAEYTLSLQMSGLRSDDTATYYCASGDYWGQGTTLTVSS
VL: DVVMTQTPLSLPVSLGDQASISCRSSQSLIYSDGNAYLHWFLQKPGQSPKLLIYKVSNRFSGVPDRFSGSGSGTDFTLKISRVETEDLGVYFCSQSTHVPWTFGGGTKLEIK
notes: also called IgG m266; IgG266
Consider B3, for which the values for the IC50 in test [19] and in test [20] were 0.53 nM and 0.5 nM, respectively. Moreover, the Kd in [21] turned out to be 0.224 nM.

B4: 60A10-27GS-42D4-Alb (designed binder)
chain: EVQLVESGGGLVQAGGSLRLSCAASGRTFNNYNMGWFRQAPGKEREFVAAVSRSGVSTYYADSVKGRFTISRDNAKNAVYLQMNSLKPEDTAIYYCGAAYRGTAINVRRSYDSWGQGTQVTVSSGGGSGGGGSGGGGSGGGGSGGGGSGGGEVQLVESGGGLVLAGGSLRLSCVHSGPTFSTDTMGWFRQAPGKEREFVAAVTWNSGRTNYADSVKGRFTVSRDNTRNAAYLQMSGLKDEDTAVYYCTAHRLVVGGTSVGDWRYWGQGTQVTVSS
notes: calculated molecular weight 95 kDa; also called biparatopic VHH fused to human serum albumin; not shown: human serum albumin, fused C-terminally
On to B4, for which, in [22], the “ratio of A-beta(1-28)-p38 to 60A10-27GS-42D4-Alb in the complex” value is around 1.

B5: ABII42D4-9GS-ABII42D4 (designed binder)
chain: EVQLVESGGGLVLAGGSLRLSCVHSGPTFSTDTMGWFRQAPGKEREFVAAVTWNSGRTNYADSVKGRFTVSRDNTRNAAYLQMSGLKDEDTAVYYCTAHRLVVGGTSVGDWRYWGQGTQVTVSSGGGGSGGGGEVQLVESGGGLVLAGGSLRLSCVHSGPTFSTDTMGWFRQAPGKEREFVAAVTWNSGRTNYADSVKGRFTVSRDNTRNAAYLQMSGLKDEDTAVYYCTAHRLVVGGTSVGDWRYWGQGTQVTVSS
notes: VHH dimer with two identical domains; also called bivalent ABII42D4
For B5, the “fold improved IC50 against monovalent ABII42D4” value in test [23] amounted to 3.2 fold. Also, the 50% inhibitory concentration (IC50) in test [9] is 16 nM; in [10], above 1000 nM.

B6: reference VHH 2D2 (VHH)
VHH: AVQLVDSGGGLVQAGGSLRLSCAVSGGTFSSIGMGWFRQAPGKEREFVGAISRSGDSTYYADSVKGRFTISRDGAKNTVYLQMNSLKDEDTAVYYCAGRPAGTAINIRRSYNYWGQGTQVTVSS
notes: from WO2006/40153, made and purified like the other VHHs
As for B6, the EC50 in test [1] was 4.7 nM; in test [2], 15.8 nM; in [3] it was 4.7 nM; in [4] it was 15.8 nM. The “Aggregation inhibition (% inhibition at 26 µM)” value in test [24] turned out to be 69%. Besides, the IC50 in test [25] and in [26] was 404 nM each time.

The term EC50 denotes the concentration at which the effect is half-maximal. A low value points to an effect from little substance. What is called IC50 is the concentration at which inhibition is half-maximal. Usually Kd stands for a measure of binding affinity in units of concentration. A word on the koff: it is the first-order rate constant of dissociation.
